Assay [1] deals with T1, recombinant human FGFR3 IIIb Fc fusion protein (human, UniProt P22607-2 23-377, limits assumed).
T1 construct: Bought reagent; the IIIb splice isoform is meant; also called rhFGFR3 IIIb Fc; hFGFR3 IIIb; not shown: Fc fragment (removable by Factor Xa, detected with anti-human IgG)
T1 sequence (looked up): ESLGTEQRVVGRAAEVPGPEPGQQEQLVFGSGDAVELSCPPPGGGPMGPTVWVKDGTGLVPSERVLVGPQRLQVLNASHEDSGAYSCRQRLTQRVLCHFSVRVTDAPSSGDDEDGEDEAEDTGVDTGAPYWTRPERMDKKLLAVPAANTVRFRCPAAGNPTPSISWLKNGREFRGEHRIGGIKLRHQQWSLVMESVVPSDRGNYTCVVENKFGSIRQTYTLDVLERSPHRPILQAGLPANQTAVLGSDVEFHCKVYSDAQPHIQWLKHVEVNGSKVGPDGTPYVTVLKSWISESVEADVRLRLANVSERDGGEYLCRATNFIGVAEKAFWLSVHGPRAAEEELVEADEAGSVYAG
The experiment in a line: SPR (Biacore T100), antibody captured on anti-mouse Ig, rhFGFR3 IIIb Fc as analyte, 25 C. Here is the method:
(§1) The binding affinities and kinetics of interaction of the monoclonal antibodies (15D8, 27H2, 2G4, and 4E7(7D12)) produced in Example 1 against recombinant human FGFR3 (IIIb and IIIc isoforms) Fc fusion protein (rhFGFR3 IIIb Fc or rhFGFR3 IIIc Fc) were measured by surface plasmon resonance using a Biacore™ T100 (Biacore) instrument.
(§2) Rabbit anti-mouse immunoglobulins (Biacore, Catalog No. BR-1005-14) were immobilized on carboxymethylated dextran CM4 sensor chips (Biacore, Catalog No. BR-1005-34) by amine coupling (Biacore, Catalog No. BR-1000-50) using a standard coupling protocol according to manufacturer's instructions.
(§3) The antibodies were captured in an individual flow cell at a flow rate of 10 μl/min. Injection time was varied for each antibody to yield approximately 40-50 RU of antibody captured for each cycle. Buffer or rhFGFR3 IIIb Fc (R&D Systems, Catalog No. 1264-FR-050) or rhFGFR3 IIIc Fc (R&D Systems, Catalog No. 766-FR-050) diluted in running buffer was injected sequentially over a reference surface (no antibody captured) and the active surface (antibody to be tested) for 300 sec at 60 μl/min. The dissociation phase was monitored for 30 minutes. The surface was then regenerated with two 60-seconds injection of 10 mM Glycine-HCl, pH 1.7 (made from Glycine pH 1.5 (Biacore, Catalog No. BR-1003-54) and pH 2.0 (Biacore, Catalog No. BR-1003-55)) at a flow rate of 60 μl/min. rhFGFR3 Fc concentrations tested were 0.62 nM to 40 nM.

In assay [2] the target is T2, recombinant human FGFR3 IIIc Fc fusion protein (human, UniProt P22607 23-375).
T2 construct: Bought reagent; also called rhFGFR3 IIIc Fc; not shown: Fc fragment (removable by Factor Xa)
T2 sequence (looked up): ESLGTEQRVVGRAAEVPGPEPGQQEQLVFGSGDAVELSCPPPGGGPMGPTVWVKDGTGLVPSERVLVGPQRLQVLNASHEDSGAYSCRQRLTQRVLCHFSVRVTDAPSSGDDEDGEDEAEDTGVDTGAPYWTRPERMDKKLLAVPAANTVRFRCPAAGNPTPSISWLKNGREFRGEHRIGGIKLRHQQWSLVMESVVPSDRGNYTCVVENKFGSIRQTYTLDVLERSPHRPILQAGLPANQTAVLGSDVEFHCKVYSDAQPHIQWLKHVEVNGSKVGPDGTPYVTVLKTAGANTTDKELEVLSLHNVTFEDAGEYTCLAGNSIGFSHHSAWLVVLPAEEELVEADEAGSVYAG
The assay can be described thus: kinetic exclusion assay (KinExA), antibody and rhFGFR3 IIIc Fc in solution, room temperature. Here is the method:
The binding affinities of monoclonal 15D8, chimeric 15D8, and humanized 15D8 antibodies for recombinant human FGFR3 IIIc Fc fusion protein was measured using a kinetic exclusion assay, KinExA® technology (Sapidyne Instruments, Inc.). First, beads were prepared for the purpose of detecting anti-FGFR3 antibody that is unbound to FGFR3 IIIc Fc. This was done by adding 1 ml recombinant human FGFR3IIIc Fc (R&D Systems, Inc.) 10 ug/ml in PBS to 200 mg polymethyl methacrylate (PMMA) hard beads. The suspension was mixed and rotated for two hours at room temperature. Next, the mixture was centrifuged and supernatant was discarded. The bead pellet was rinsed once with 1 ml BSA 10 mg/ml in PBS by incubation for 1 hour at room temperature with rotation. The beads were resuspended in 27 ml PBS with 0.02% NaN₃. Next, a fixed concentration of anti-FGFR3 antibody (0.5 nM) was incubated in solution with a series of FGFR3 IIIc Fc concentrations (started with 50 nM (in PBS BSA (1 mg/ml)) and serially diluted 1:2 in PBS BSA(1 mg/ml) to obtain 50 to 0.0122 nM FGFR3 III Fc) at room temperature for at least 4 hours to allow equilibrium to be reached. By measuring the amount of anti-FGFR3 antibody that is not bound to FGFR3 IIIc Fc, the KD was determined. Unbound anti-FGFR3 antibody was detected by allowing the anti-FGFR3 antibody/FGFR3 IIIc Fc solution to flow through the FGFR3 IIIc Fc PMMA beads. The anti-FGFR3 antibody captured by these beads was then detected with Cy5-conjugated anti-human secondary antibody 0.3 ug/ml (Jackson ImmunoResearch) or Cy5-conjugated anti-mouse secondary antibody (Jackson ImmunoResearch) 0.5 ug/ml in PBS BSA 1 mg/ml. The detected signal for captured anti-FGFR3 antibody is directly proportional to the remaining free binding sites, thus allowing KD determination. The experiments were repeated, varying the concentrations of anti-FGFR3 antibody or FGFR3 III Fc used in solution, and the KD was calculated with the KinExA® software using n-curve analysis.

Assay [3] addresses T2, recombinant human FGFR3 IIIc Fc fusion …. The assay can be described thus: SPR (Biacore T100), antibody captured on anti-mouse Ig, rhFGFR3 IIIc Fc as analyte, 25 C. Here is the method:
as §1, §2, §3
On the technique in general: Surface plasmon resonance follows binding to a sensor surface in real time, without labels.

Usually Kd stands for the constant that tells how readily two partners part at equilibrium. A word on the koff: it is the first-order rate constant of dissociation. The term kon denotes a measure of how fast the partners come together.

B1: anti-FGFR3 monoclonal antibody 15D8 (antibody, mouse IgG1, kappa)
heavy: EIQLQQSGPELVKPGASVKVSCKASGYAFTSYNMYWVKQSHGKSLEWIGYIDPYNGGTSYNQKFKGKATLTVDKSSSTAYMHLNSLTSEDSAVYYCAREGGNYEAWFAYWGQGTLVTVSAAKTTPPSVYPLAPGSAAQTNSMVTLGCLVKGYFPEPVTVTWNSGSLSSGVHTFPAVLQSDLYTLSSSVTVPSSTWPSETVTCNVAHPASSTKVDKKIVPRDCGCKPCICTVPEVSSVFIFPPKPKDVLTITLTPKVTCVVVDISKDDPEVQFSWFVDDVEVHTAQTQPREEQFNSTFRSVSELPIMHQDWLNGKEFKCRVNSAAFPAPIEKTISKTKGRPKAPQVYTIPPPKEQMAKDKVSLTCMITDFFPEDITVEWQWNGQPAENYKNTQPIMDTDGSYFVYSKLNVQKSNWEAGNTFTCSVLHEGLHNHHTEKSLSHSPGK
light: QIVLTQSPALMSASPGEKVTMTCSASSSVSYMYWYQQKPRSSPKPWIYLTSYLASGVPARFSGSGSGTSYSLTISSMEAEDAATYYCQQWSSYPLTFGAGTKLELKRADAAPTVSIFPPSSEQLTSGGASVVCFLNNFYPKDINVKWKIDGSERQNGVLNSWTDQDSKDSTYSMSSTLTLTKDEYERHNSYTCEATHKTSTSPIVKSFNRNEC
notes: also called 15D8 IgG1; murine antibody 15D8
In the case of B1, in assay [1], the Kd was 2.6 nM, the off-rate (koff) turned out to be 0.00033 s⁻¹ and the association rate constant (kon) was 200000 M⁻¹ s⁻¹. Moreover, in assay [2], the Kd stood at 0.0806 nM. Besides, in assay [3], the equilibrium dissociation constant (Kd) was 2.2 nM, the koff is 0.0002 s⁻¹ and the kon amounted to 93000 M⁻¹ s⁻¹.

For the origin of these results see US20100003258A1 (AVEO PHARMACEUTICALS, published 2010).
